The text below walks through data of the supplement of paper PMC9112550, “Optimization of the antimicrobial peptide Bac7 by deep mutational scanning” (BMC Biology, 2022).
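Also: peptides expressed intracellularly from a pBAD plasmid library in pooled LB shake-flask culture, induced with 0.3% L-arabinose, DNA abundance read by NGS, three biological replicates, DESeq2 with apeglm shrinkage.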

The subject of the data set is Escherichia coli TOP10. The data set is described as follows: shrunken log2 fold change of peptide-encoding DNA abundance (4.5 h post-induction vs induction); higher = less antimicrobial activity (less host growth inhibition). The settings on record: time post-induction: 4.5 h; library: site-saturation at positions 5, 18, 19, 20.
RRIRARPPRLPRPRPRPAVDPRP: the “shrunken log2 fold change” value stood at 0.289. For RRIRGRPPRLPRPRPRPFLQPRP, the “shrunken log2 fold change” value turned out to be 0.231. As for RRIRTRPPRLPRPRPRPIPFPRP, the “shrunken log2 fold change” value was -0.325. To RRIRFRPPRLPRPRPRPSGAPRP belongs 0.103; to RRIRKRPPRLPRPRPRPHQYPRP, -0.293. As for RRIRPRPPRLPRPRPRPEPPPRP, the “shrunken log2 fold change” value is 0.474. To RRIRHRPPRLPRPRPRPDNYPRP belongs -0.0274; to RRIRSRPPRLPRPRPRPDEYPRP, -0.205; to RRIRFRPPRLPRPRPRPCGPPRP, 0.243. To RRIRPRPPRLPRPRPRPHANPRP belongs -0.0736; to RRIRERPPRLPRPRPRPMWEPRP, 0.169; to RRIRLRPPRLPRPRPRPMCAPRP, 0.0321. RRIRYRPPRLPRPRPRPSAWPRP: the “shrunken log2 fold change” value was 0.199. On to RRIRCRPPRLPRPRPRPVFQPRP, for which the “shrunken log2 fold change” value was -0.0498. As for RRIRDRPPRLPRPRPRPQMFPRP, the “shrunken log2 fold change” value was -0.0311. To RRIRGRPPRLPRPRPRPGFSPRP belongs 0.644; to RRIRGRPPRLPRPRPRPQEIPRP, 0.427. The value for RRIRIRPPRLPRPRPRPWMVPRP was -0.619. To RRIRTRPPRLPRPRPRPRHVPRP belongs 0.0629; to RRIRRRPPRLPRPRPRPRICPRP, 0.414; to RRIRKRPPRLPRPRPRPCPIPRP, -0.212. RRIRLRPPRLPRPRPRPRNDPRP: the “shrunken log2 fold change” value was -0.142. The value for RRIRDRPPRLPRPRPRPTCYPRP was 0.289; that for RRIRMRPPRLPRPRPRPMDYPRP was -0.00149. Turning to RRIRTRPPRLPRPRPRPLTNPRP, the “shrunken log2 fold change” value was -0.0099. With RRIRHRPPRLPRPRPRPEDCPRP, the “shrunken log2 fold change” value is -0.0178. To RRIRYRPPRLPRPRPRPLWTPRP belongs -0.563. To RRIRYRPPRLPRPRPRPTLYPRP belongs -0.828; to RRIRHRPPRLPRPRPRPFKCPRP, -0.0134. For the sequence RRIRRRPPRLPRPRPRPNRMPRP, the “shrunken log2 fold change” value is -0.303.

On to RRIRKRPPRLPRPRPRPHWVPRP, for which the “shrunken log2 fold change” value was -0.0562. The value for RRIRGRPPRLPRPRPRPFLLPRP was 0.206; that for RRIRTRPPRLPRPRPRPMFQPRP was -0.446; that for RRIRIRPPRLPRPRPRPEISPRP was -0.481. The value for RRIRWRPPRLPRPRPRPWHWPRP was -0.101; that for RRIRHRPPRLPRPRPRPHRVPRP was 0.0179; that for RRIRARPPRLPRPRPRPPPVPRP was 1.04. To RRIRIRPPRLPRPRPRPKPKPRP belongs 0.161; to RRIRERPPRLPRPRPRPPLNPRP, -0.192; to RRIRNRPPRLPRPRPRPWDGPRP, 0.185.

Regarding RRIRDRPPRLPRPRPRPGTCPRP, the “shrunken log2 fold change” value was -0.0724. The value for RRIRIRPPRLPRPRPRPVEEPRP was -0.0729; that for RRIRKRPPRLPRPRPRPTKWPRP was 0.172.

With RRIRFRPPRLPRPRPRPHLYPRP, the “shrunken log2 fold change” value was -0.355.

As to RRIRMRPPRLPRPRPRPQPFPRP, the “shrunken log2 fold change” value stood at 0.211. For the sequence RRIRDRPPRLPRPRPRPYLAPRP, the “shrunken log2 fold change” value was -0.0552. To RRIRRRPPRLPRPRPRPGLVPRP belongs 0.279; to RRIRQRPPRLPRPRPRPFMPPRP, -0.216; to RRIRARPPRLPRPRPRPDVAPRP, 1.35.

For the sequence RRIRYRPPRLPRPRPRPDDEPRP, the “shrunken log2 fold change” value amounted to 0.00902. The value for RRIRMRPPRLPRPRPRPLEEPRP was 3.36. The value for RRIRLRPPRLPRPRPRPNQTPRP was -0.0464; that for RRIRDRPPRLPRPRPRPAIQPRP was 0.389.

With RRIRERPPRLPRPRPRPKHNPRP, the “shrunken log2 fold change” value is -0.587. To RRIRQRPPRLPRPRPRPDIRPRP belongs -0.154; to RRIRDRPPRLPRPRPRPRHIPRP, -0.25. As to RRIRWRPPRLPRPRPRPDKDPRP, the “shrunken log2 fold change” value was -0.365.

In the case of RRIRIRPPRLPRPRPRPCMQPRP, the “shrunken log2 fold change” value is -0.0295. Regarding RRIRDRPPRLPRPRPRPMVLPRP, the “shrunken log2 fold change” value was 0.359. To RRIRYRPPRLPRPRPRPGKYPRP belongs -0.466.

In the case of RRIRWRPPRLPRPRPRPNLCPRP, the “shrunken log2 fold change” value was 0.114. With RRIRQRPPRLPRPRPRPAEHPRP, the “shrunken log2 fold change” value came out at 0.166. The value for RRIRIRPPRLPRPRPRPCHMPRP was -0.188. RRIRTRPPRLPRPRPRPIGHPRP: the “shrunken log2 fold change” value is -0.111. For the sequence RRIRWRPPRLPRPRPRPSKPPRP, the “shrunken log2 fold change” value is -0.0185.

RRIRIRPPRLPRPRPRPFKIPRP: the “shrunken log2 fold change” value is -0.144. Turning to RRIRERPPRLPRPRPRPDNWPRP, the “shrunken log2 fold change” value is -0.103. The value for RRIRERPPRLPRPRPRPFAAPRP was 0.229; that for RRIRDRPPRLPRPRPRPEELPRP was 0.00153. The value for RRIRVRPPRLPRPRPRPAFHPRP was -0.208; that for RRIRFRPPRLPRPRPRPHFGPRP was -0.197; that for RRIRRRPPRLPRPRPRPELVPRP was 0.27. To RRIRRRPPRLPRPRPRPWGKPRP belongs -0.0259; to RRIRDRPPRLPRPRPRPVQMPRP, -0.0835; to RRIRARPPRLPRPRPRPMMHPRP, 0.184.

RRIRDRPPRLPRPRPRPCLDPRP: the “shrunken log2 fold change” value is -0.0178. The value for RRIRDRPPRLPRPRPRPKDNPRP was -0.116; that for RRIRARPPRLPRPRPRPYEEPRP was -0.441; that for RRIRDRPPRLPRPRPRPQQKPRP was -0.14. As to RRIRVRPPRLPRPRPRPAGWPRP, the “shrunken log2 fold change” value is 0.689.

RRIRLRPPRLPRPRPRPYYLPRP: the “shrunken log2 fold change” value is -0.477. The value for RRIRFRPPRLPRPRPRPIMPPRP was -0.127; that for RRIRDRPPRLPRPRPRPLVNPRP was 0.426; that for RRIRTRPPRLPRPRPRPRDKPRP was -0.18.

For the sequence RRIRSRPPRLPRPRPRPCMGPRP, the “shrunken log2 fold change” value is -0.403. Consider RRIRKRPPRLPRPRPRPSKDPRP, for which the “shrunken log2 fold change” value amounted to 0.395. The value for RRIRERPPRLPRPRPRPRQWPRP was -0.0536; that for RRIRVRPPRLPRPRPRPQLCPRP was -0.143; that for RRIRFRPPRLPRPRPRPNCFPRP was -0.193.

Take RRIRPRPPRLPRPRPRPSQVPRP: the “shrunken log2 fold change” value was -0.645. In the case of RRIRYRPPRLPRPRPRPKYGPRP, the “shrunken log2 fold change” value is -0.176. The value for RRIRMRPPRLPRPRPRPEPHPRP was 1.43; that for RRIRFRPPRLPRPRPRPWRQPRP was -0.103; that for RRIRWRPPRLPRPRPRPPHIPRP was 0.696. For RRIRQRPPRLPRPRPRPAECPRP, the “shrunken log2 fold change” value is 0.17. As for RRIRWRPPRLPRPRPRPCRGPRP, the “shrunken log2 fold change” value is -0.0518. Take RRIRARPPRLPRPRPRPKRWPRP: the “shrunken log2 fold change” value was found to be 0.586. The value for RRIRRRPPRLPRPRPRPELNPRP was 0.312. To RRIRTRPPRLPRPRPRPSDIPRP belongs -0.0989. The value for RRIRWRPPRLPRPRPRPKNIPRP was -0.159.

As to RRIRHRPPRLPRPRPRPADPPRP, the “shrunken log2 fold change” value worked out at 0.0438. Take RRIRCRPPRLPRPRPRPNEMPRP: the “shrunken log2 fold change” value was -0.123. The value for RRIRVRPPRLPRPRPRPWFSPRP was -0.128; that for RRIRCRPPRLPRPRPRPQDHPRP was -0.226; that for RRIRLRPPRLPRPRPRPHTVPRP was -0.267. For RRIRGRPPRLPRPRPRPSTYPRP, the “shrunken log2 fold change” value was -0.189. To RRIRQRPPRLPRPRPRPIHGPRP belongs -0.0264. Take RRIRCRPPRLPRPRPRPGLPPRP: the “shrunken log2 fold change” value came out at 0.143.

Take RRIRNRPPRLPRPRPRPMAYPRP: the “shrunken log2 fold change” value was -0.161. RRIRYRPPRLPRPRPRPFLYPRP: the “shrunken log2 fold change” value was -0.881. To RRIRFRPPRLPRPRPRPEPDPRP belongs -0.0658. To RRIRQRPPRLPRPRPRPGGGPRP belongs 0.748; to RRIRLRPPRLPRPRPRPKPPPRP, 0.586. For the sequence RRIRSRPPRLPRPRPRPAIEPRP, the “shrunken log2 fold change” value amounted to 0.00515. To RRIRSRPPRLPRPRPRPMVYPRP belongs -0.111; to RRIRERPPRLPRPRPRPFQGPRP, 0.0891. As to RRIRNRPPRLPRPRPRPTCHPRP, the “shrunken log2 fold change” value was -0.643. As for RRIRDRPPRLPRPRPRPRPTPRP, the “shrunken log2 fold change” value was determined as 0.381. For the sequence RRIRPRPPRLPRPRPRPCKLPRP, the “shrunken log2 fold change” value is -0.609. As to RRIRARPPRLPRPRPRPEHPPRP, the “shrunken log2 fold change” value came out at 0.652.

For the sequence RRIRARPPRLPRPRPRPPDSPRP, the “shrunken log2 fold change” value amounted to 0.212. Regarding RRIRRRPPRLPRPRPRPQEQPRP, the “shrunken log2 fold change” value is -0.0166. Consider RRIRLRPPRLPRPRPRPCEYPRP, for which the “shrunken log2 fold change” value stood at 0.0103. Turning to RRIRYRPPRLPRPRPRPLDPPRP, the “shrunken log2 fold change” value was -0.307. On to RRIRDRPPRLPRPRPRPMDDPRP, for which the “shrunken log2 fold change” value was -0.000946.
